In patent US20120122958, “TRANSCRIPTIONAL REPRESSION LEADING TO PARKINSON'S DISEASE” (published 2012):

B1: IRS2-WT (dsDNA)
DNA 1: ACATACAGGCTATTTTGTTGATTAAAC
DNA 2: GTTTAATCAACAAAATAGCCTGTATGT
B2: IRS1-WT (dsDNA)
DNA 1: AGTGTGTTGGTATTTTTCCCTCAGTTC
DNA 2: GAACTGAGGGAAAAATACCAACACACT
B3: IRS3-WT (dsDNA)
DNA 1: GCCACTTGCTTGTTTTGGAAGGAAAAT
DNA 2: ATTTTCCTTCCAAAACAAGCAAGTGGC

What follows are binders tested against PARIS (ZNF746) (Homo sapiens, UniProt Q6NUN9 SEQ:1-644) (assay: EMSA; competed by unlabeled WT oligo). Conditions: tags: GST; label: 32P.
Chain of PARIS (ZNF746) (Q6NUN9 whole entry): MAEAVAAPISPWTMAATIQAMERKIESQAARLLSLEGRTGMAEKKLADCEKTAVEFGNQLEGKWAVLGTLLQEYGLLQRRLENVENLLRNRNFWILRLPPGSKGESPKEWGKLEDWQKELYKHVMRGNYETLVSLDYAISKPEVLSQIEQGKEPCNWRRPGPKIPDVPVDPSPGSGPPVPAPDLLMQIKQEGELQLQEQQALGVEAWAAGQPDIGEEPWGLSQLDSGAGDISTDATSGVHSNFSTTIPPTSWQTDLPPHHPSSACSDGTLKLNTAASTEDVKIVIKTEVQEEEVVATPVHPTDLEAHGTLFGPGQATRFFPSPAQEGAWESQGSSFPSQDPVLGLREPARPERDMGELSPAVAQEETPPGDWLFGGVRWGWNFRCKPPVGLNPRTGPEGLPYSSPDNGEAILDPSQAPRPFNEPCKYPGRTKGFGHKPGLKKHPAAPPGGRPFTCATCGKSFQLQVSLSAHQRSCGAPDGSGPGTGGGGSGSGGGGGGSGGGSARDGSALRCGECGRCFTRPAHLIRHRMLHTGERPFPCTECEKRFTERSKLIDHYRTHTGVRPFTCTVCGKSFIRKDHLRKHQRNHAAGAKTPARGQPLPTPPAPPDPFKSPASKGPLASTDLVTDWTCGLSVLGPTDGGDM

Binding result, binds:
B1
B2
B3
